Measured values as given in article doi:10.1101/2021.09.17.460839.

Molecular target: T1, Rv0792c (Mycobacterium tuberculosis) (UniProt O86331)
T1 sequence: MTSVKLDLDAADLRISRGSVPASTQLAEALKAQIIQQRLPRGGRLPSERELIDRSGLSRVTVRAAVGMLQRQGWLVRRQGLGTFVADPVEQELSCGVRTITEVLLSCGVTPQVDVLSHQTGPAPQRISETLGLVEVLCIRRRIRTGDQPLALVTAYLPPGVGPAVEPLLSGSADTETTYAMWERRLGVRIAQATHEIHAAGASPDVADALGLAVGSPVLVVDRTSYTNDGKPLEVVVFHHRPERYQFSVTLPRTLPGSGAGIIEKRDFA
Experiment: ALISA

| Sequence | binding signal [% reduction] | Kd [nM] |
| --- | --- | --- |
| TAGGGTCTCGGATCGGAGGGATGGGCAGTGTGTGCGGTATGTTG [Rv0792c_5 aptamer (printed Rv0729c_5)] | 90 |  |
| TCGTATTCATCTCTACATCCGGTAATCCGCACATGAGTAATCC [Rv0792c_1 aptamer (printed Rv0729c_1)] | 90 |  |
| TCTAGTCATTCGTCATAATCCCATCTGTTTCTTCCTCCTTCCGT [Rv0792c_2 aptamer (printed Rv0729c_2)] |  | 51 |
